The values that follow come from patent US20120142098A1 (NOVIMMUNE S A, published 2012).

To fix the notation:
B1: muCH2-chimeric IgG1 15C1 (antibody, V domains shown)
VH: DVQLQESGPDLIQPSQSLSLTCTVTGYSITGGYSWHWIRQFPGNKLEWMGYIHYSGYTDFNPSLKTRISITRDTSKNQFFLQLNSVTTEDTATYYCARKDPSDGFPYWGQGTLVTVSA
VL: DIVMTQSPATLSVTPGDRVSLSCRASQSISDHLHWYQQKSHESPRLLIKYASHAISGIPSRFSGSGSGTDFTLSIKSVEPEDIGVYYCQNGHSFPLTFGAGTKLELK
notes: domain: CH1 and hinge; The CH2 domain of human IgG1 is replaced with that of mouse IgG1; Limits are in EU numbering; also called chimeric IgG1 15C1 containing mouse CH2; muCH2 chim 15C1; not shown: mouse IgG1 heavy chain CH2 domain, EU positions 231 to 340; human IgG1 heavy chain CH3 domain (after EU position 340); human Kappa light chain constant region
B2: huCH2-mouse IgG1 15C1 (antibody, V domains shown)
VH: B1 VH
VL: B1 VL
notes: domain: CH1 and hinge; The CH2 domain of mouse IgG1 is replaced with that of human IgG1; Limits are in EU numbering; also called mouse IgG1 15C1 containing human CH2; not shown: human IgG1 heavy chain CH2 domain, EU positions 231 to 340; mouse IgG1 heavy chain CH3 domain (after EU position 340); mouse kappa light chain constant region
B3: chimeric MAb with the 15C1 variable region on a human IgG4 backbone (antibody, V domains shown)
VH: B1 VH
VL: B1 VL
notes: also called hIgG4 15C1; human IgG4 version of 15C1
B4: mouse IgG1 15C1 (antibody, V domains shown)
VH: B1 VH
VL: B1 VL
notes: Murine IgG1/K antibody; The hybridoma-derived and the PEAK-cell recombinant forms are treated as one molecule; also called mu15C1; murine 15C1
B5: chimeric IgG1 15C1 mutant # E (NAAL at EU positions 325 to 328) (antibody, V domains shown)
VH: B1 VH
VL: B1 VL
notes: Positions are in EU numbering; not shown: human IgG1 heavy chain constant region; human Kappa light chain constant region
B6: chimeric IgG1 15C1 mutant # C (SAAF at EU positions 325 to 328) (antibody, V domains shown)
VH: B1 VH
VL: B1 VL
notes: as for B5
B7: chimeric IgG1 15C1 mutant # G (NAAF at EU positions 325 to 328) (antibody, V domains shown)
VH: B1 VH
VL: B1 VL
notes: as for B5
B8: chimeric IgG1 15C1 mutant # F (SKAF at EU positions 325 to 328) (antibody, V domains shown)
VH: B1 VH
VL: B1 VL
notes: as for B5
B9: chimeric IgG1 15C1 mutant # H (NKAF at EU positions 325 to 328) (antibody, V domains shown)
VH: B1 VH
VL: B1 VL
notes: as for B5
B10: chimeric IgG1 15C1 mutant # D (SAAL at EU positions 325 to 328) (antibody, V domains shown)
VH: B1 VH
VL: B1 VL
notes: as for B5
B11: B mu 319-340 CH2 chimeric IgG1 15C1 (antibody, V domains shown)
VH: B1 VH
VL: B1 VL
notes: It is built that way here; copies: 2 + 2
B12: chimeric IgG1 15C1 (antibody, V domains shown)
VH: B1 VH
VL: B1 VL
notes: also called chimeric 15C1; 15C1 on a human IgG1 backbone
B13: A mu 231-261 CH2 chimeric IgG1 15C1 (antibody, V domains shown)
VH: B1 VH
VL: B1 VL
notes: as for B11
B14: C mu 296-318 CH2 chimeric IgG1 15C1 (antibody, V domains shown)
VH: B1 VH
VL: B1 VL
notes: copies: 2 + 2
B15: D mu 262-295 CH2 chimeric IgG1 15C1 (antibody, V domains shown)
VH: B1 VH
VL: B1 VL
notes: copies: 2 + 2
B16: 15C1 humanized VH mutant 1 together with 15C1 humanized VL A26 (antibody, human IgG1, V domains shown)
VH: QVQLQESGPGLVKPSDTLSLTCAVSGYSITGGYSWHWIRQPPGKGLEWMGYIHYSGYTDFNPSLKTRITISRDTSKNQFSLKLSSVTAVDTAVYYCARKDPSDAFPYWGQGTLVTVSS
VL: EIVLTQSPDFQSVTPKEKVTITCRASQSISDHLHWYQQKPDQSPKLLIKYASHAISGVPSRFSGSGSGTDFTLTINSLEAEDAATYYCQNGHSFPLTFGGGTKVEIK
notes: also called version VH mutant 1

The target in one assay is T1, human TLR4/MD2 complex expressed on the cell surface (human, UniProt O00206 24-839; Q9Y6Y9 19-160).
T1 construct: also called CHO TLR4/MD2 transfectants
T1 sequence (O00206 24-839 limits assumed, chain 1 of 2): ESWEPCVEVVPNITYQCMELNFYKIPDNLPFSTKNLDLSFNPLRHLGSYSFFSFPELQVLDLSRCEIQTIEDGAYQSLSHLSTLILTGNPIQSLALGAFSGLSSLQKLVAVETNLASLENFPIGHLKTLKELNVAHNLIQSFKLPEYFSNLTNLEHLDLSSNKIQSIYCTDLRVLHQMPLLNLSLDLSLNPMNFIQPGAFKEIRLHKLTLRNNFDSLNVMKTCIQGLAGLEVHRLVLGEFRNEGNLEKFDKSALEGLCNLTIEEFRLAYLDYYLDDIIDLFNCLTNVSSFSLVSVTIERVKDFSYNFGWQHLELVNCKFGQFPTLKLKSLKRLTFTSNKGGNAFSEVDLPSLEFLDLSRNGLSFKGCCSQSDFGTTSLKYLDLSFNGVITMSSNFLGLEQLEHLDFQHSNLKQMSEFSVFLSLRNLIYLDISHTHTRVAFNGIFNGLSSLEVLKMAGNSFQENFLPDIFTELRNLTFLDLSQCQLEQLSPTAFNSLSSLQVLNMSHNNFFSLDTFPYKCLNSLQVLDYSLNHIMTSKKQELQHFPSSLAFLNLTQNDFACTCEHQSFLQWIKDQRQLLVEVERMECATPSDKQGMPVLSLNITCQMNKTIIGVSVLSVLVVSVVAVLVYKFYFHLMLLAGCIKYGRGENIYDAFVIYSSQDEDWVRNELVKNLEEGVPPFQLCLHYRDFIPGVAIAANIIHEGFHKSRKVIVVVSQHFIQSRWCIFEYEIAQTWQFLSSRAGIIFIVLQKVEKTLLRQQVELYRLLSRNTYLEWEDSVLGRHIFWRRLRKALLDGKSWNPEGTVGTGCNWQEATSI
T1 sequence (Q9Y6Y9 19-160 R56G limits assumed, chain 2 of 2): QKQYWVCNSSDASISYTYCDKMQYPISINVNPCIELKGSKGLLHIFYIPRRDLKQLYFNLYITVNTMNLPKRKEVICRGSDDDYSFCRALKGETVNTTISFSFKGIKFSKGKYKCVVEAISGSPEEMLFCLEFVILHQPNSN
Briefly: FACS on CHO TLR4/MD2 transfectants.
As for B1, the binding result was “binds”. Regarding B2, the binding result is given as “binds”.

In a further assay the target is T1, human TLR4/MD2 complex expressed on the …. Briefly: binding to TLR4/MD-2 transfected CHO cells.
As to B3, the binding result is given as “binds”. For the molecule B4, the binding result is recorded as “binds”.

For another assay the target is unchanged. Kind of assay: FACS on CHO stable cell line expressing human TLR4/MD2.
For the molecule B5, the binding result is listed as “binds”. In the case of B6, the binding result is reported as “binds”. Take B7: the binding result is “binds”.

In the case of B8, the binding result was “binds”. Regarding B9, the binding result is “binds”. On the same count and under the same terms, to B10 belongs “binds”.

Another assay shares this target. Kind of assay: FACS on CHO stable cell line expressing human TLR4-MD2 complex. On the procedure: Studies were then designed to evaluate which residues of the mouse CH2 domain are necessary for Fc-mediated inhibitory activity. Starting with the chimeric IgG115C1 containing the full length mouse CH2 domain, the approach was to identify the critical region of the CH2 domain by introducing a maximum number of human residues without observing a loss of the Fc-mediated inhibitory activity. The identification of these critical residues was determined by subdividing the mouse CH2 into 4 parts (A: EU positions 231 to 261; B: EU positions 319 to 340; C: EU positions 296-318 and D: EU positions 262 to 295) and introducing for each of the 4 sub-regions the corresponding CH2 amino acid sequence of a human IgG1 (see FIG. 6A). The sub-division of the mouse CH2 into four subregions was purely based on amino acid sequence homology with the human CH2. The four heavy chain mutants were engineered by overlapping PCR and recombinant MAbs expressed in PEAK. The corresponding antibodies were purified from transfected-cell supernatants by protein G affinity column chromatography and binding to CHO stable cell line expressing human TLR4-MD2 complex on their surface of the following antibodies was determined: muCH2-chimeric IgG1 15C1; chimeric IgG1 15C1; A mu 231-261 CH2 chimeric IgG1 15C1; B mu 319-340 CH2 chimeric IgG1 15C1; C mu 296-318 CH2 chimeric IgG1 15C1; and D mu 262-295 CH2 chimeric IgG1 15C1. 4×10⁵ cells/well were incubated for 30 minutes at 4° C. in 50 μl of phosphate buffered saline (PBS) with 1% bovine serum albumin (PBS-1% BSA) and either serial dilution of the appropriate antibody or an irrelevant human IgG1 isotype control. Cells were washed once with PBS-1% BSA and incubated in the same buffer with FMAT-Blue®-conjugated goat anti-human Kappa light chain antibody (1:250 dilution, Sigma K3502) for 30 minutes at 4° C. Cells were washed twice with PBS-1% BSA and analyzed using a FACScalibur® flow cytometer […] in the FL-4 channel.
With B11, the binding result is listed as “binds”. On to B12, for which the binding result was “binds”. For B13, the binding result was “binds”. Consider B14, for which the binding result is “binds”. B15: the binding result was “binds”.

A further assay has the same target. Kind of assay: FACS (MFI) on CHO cells expressing human TLR4-MD2; PEAK supernatants at 0.33, 0.11 and 0.04 ug/ml. On the procedure:
The binding of these mutants was analyzed by FACS on cells expressing recombinant human TLR4-MD2. PEAK cells were co-transfected with 1 ug of combinations of expression vectors encoding 15C1 humanized VH mutant 1 or 2 together with 15C1 humanized VL A26 or 15C1 humanized VH 4-28 together with 15C1 humanized VL mutant 1, 2, 3 or 4 shown in Example 4 using the Trans IT-LT1 transfection reagent (Mirus Bio Corporation, Madison Wis.). All transfections were carried out in duplicates. 72 h post-transfection, PEAK cells supernatants were collected and the concentration of recombinant human IgG1/Kappa measured by ELISA. The antibody concentrations of all the supernatants were then adjusted to 0.33 μg/ml. These supernatants and two serial dilutions of 0.11 and 0.04 ug/ml were then tested for binding to CHO cells expressing human TLR4-MD2 at their surface by FACS. 5×10⁵ cells were incubated with the diluted PEAK supernatant for 1 h at 4° C.
On to B16, for which the binding result was “binds”.
